The values that follow come from a protein production outcome set (Wang et al. 2014).

The series is described as follows: label from the status in PepcDB records.

With “MEFHLPSVPMRKILSYLDAFSLLQIAQVNKRWNTFASTDVLWRKFCLKRWFFYEVVTLELLGTESWKQFFVCRTRQERAKSRAKPEDFTYKEIPVEIGAPRNAYYISGCGLTRDGQGKSVICVVTSMNTISTWDLHKGAVTWVSPVQPSYIKILATLPEMHIAVTVDIESTIKLWDCHNREALATNNMLSSCQSLKAVFTKDGPVVLAGDTSGNLLIFRIPDLHLISRVHVFQYGINELYCSPQKKWVFLSKKHSQILPKVFFMSSLLRTSEFSAPASTILSFPLCQRAFWTPRREDRITLMSIKGSKKITTFVTFDIKLEKEEIGNKIRVKEYAIANFSLKKFEDTLEWMGVSDKNVIVCSTGSSLLIYSITGLHLQTFPYGPGEILRLSVDPLHVIVTFIDGSLELFAWEERSPLLRRCYRLYNKRHMLHRRFVNKTLCDDVSIVRVMTNVPSSSFLMVYTLNNGS”, the protein production result is on record as “failed”.

Regarding “MEFNDLGITIKELRIKKNISQSELCHGICSQSQISKIEKGMIYPSSILLYQLSERLGIDPNNIFALTQNKRLKYVENVKYVIKDCLKQKQYKELYEIVKKEKNLNNFQTKDEKQFLMWHEAIAIFMVDKSIKTALDFLNNALKLTLTNSDFLSEREIDIMQTMAIFYAENKEYEKSINIFKRCLTNFNKLDFPRDKEIKLKLMLNLAKCFDFTYQHEEAIKYIDKGIKLAINLNTLYLLGELFYLKGQCLLKMKQHNVEDVIYNWKKALFIFELTEKEYYTKMLPDELIELQNKKHS”, the protein production result was “failed”.

With “MEGEAQKKFTTGDKAYVKKDSMMYEIVVGCNRSCPCRDSQCIAQIQQVAEPTVANGTARYFVHYVSWNESFDEWVEELDLYPFNAESQQLMNDLRQQALTEKDTENSVPEQENQLKRKRPSKETEKREEPLDAYSLFNIPGSLKRQLMDEWETVTREKMTLTLPREYTVRRILEIWATTKSKQSDSNKDDSTVQEFVNGIFELFNISLGKMLLYRYERPQHNQIFHENESPPEPIDVYGAEHLLRLFVKLPGLVRHLQVPEEAVLNIAQKSYEMLRFLQKNSRKFFSPQYEPLKSQDDSVQGENEDDMDEE”, the protein production entry was “not failed”.

For “MEGFLMKKTWIALSLLIAFSASSLLPMQAKEATLPKDERYHLVNTSEKGEYELLNTYDSYTEAEKNFQRLSKKYNNLGITYGDSFLQVEQGVVAFPTNSDCSLNTDYILDETNTNGYLNGCYGGDAAFLEYDSYTNQIKFKISGVVAWSDATALTVYPIEKLPNVSSFIVKDGILYHQLKSSATSPSFSSVLPLSKAPSYLKESTTYYSYDTHYFYEAYDQLIKDERLATHQHAINAKKPYYNYYQYLDHRSTTDYTPKQIQSYFKQNLGFQANITNFYDTDNYVHDILTQSLLYGNSEAFFQYQNQFGANALMMLSLSLNESALGKSYIAYNKNNLFGHAAFDSSAEESASRYQSVAASVYSHALHYLSESYLNPEAFQYYGGYFGNKAGGMNVAYASDPYWGEKSASYFMRMDRDMGYQDENNYQLGIAQGQAVKVYASASKKAKLLYTTEEGYDASFILQKKIKNKSGTWYQVQSDIALTKSKESIQDGSYPFATSIGYVKADDIDVITGAEKAANKSYLPITFDAVDGSFYPNTSSITLFVEKGQMPVILDPIKENALFDGWDITLEPATNALTYKATYKHIKNIEVIEKPQTKYNLGDTLNLKHGKIRVTFEDGSSKEVALNNDMVSGFHNDQSGKQRLTITYGGSTTYYDIEMDNQQEERINDVKKQAAHVIKTYMGKVGLNSEALDELIRLRNQLGQFDMQVLPRDQIRVIDRILQENLEPRYSVIIKDDTYDMQVSGLSIALQGESSFLNNIMPKTLRLDVNNDIPKEEKQFVEKVAKANGMNVASYLAIEGTDDFSTLKLQSQLVYSIQKPKKDIDHRIYSVYYISGKDIYQLPTTQSKNRIVFPNDKLGHYAVVWKHADSITHSKDFQEVNTIKQNGKDYIKVYILLPCIIILLTLALLALILYMRKRKIKPFKA”, the protein production entry was “failed”.

For the sequence “MEGFPVRVRVDVRFRDLDPLGHVNNAVFLSYMELARIRYFQRISPDWLEEGHFVVARMEVDYLRPILLGDEVFVGVRTVGLGRSSLRMEHLVTANGESAAKGLGVLVWLEGGRPAPLPEAIRERIRALEGRPL”, the protein production entry is recorded as “not failed”.

For the sequence “MEGIQHPIPRTVEEVFSDFRGRRAGLIKALSTDVQKFYHQCDPEKENLCLYGLPNETWEVNLPVEEVPPELPEPALGINFARDGMQEKDWISLVAVHSDSWLISVAFYFGARFGFGKNERKRLFQMINDLPTIFEVVTGNAKQSKDQSANHNSSRSKSSGGKPRHSESHTKASKMSPPPRKEDESGDEDEDDEQGAVCGACGDNYGGDEFWICCDACEKWFHGKCVKITPAKAEHIKHYKCPSCTTSKKMKA”, the protein production result is recorded as “failed”.

As to “MEGISIYTSDNYTEEMGSGDYDSMKEPCFREENANFNKIFLPTIYSIIFLTGIVGNGLVILVMGYQKKLRSMTDKYRLHLSVADLLFVITLPFWAVDAVANWYFGNFLCKAVHVIYTVNLYSSVLILAFISLDRYLAIVHATNSQRPRKLLAEKVVYVGVWIPALLLTIPDFIFANVSEADDRYICDRFYPNDLWVVVFQFQHIMVGLILPGIVILSCYCIIISKLSHSKGHQKRKALKTTVILILAFFACWLPYYIGISIDSFILLEIIKQGCEFENTVHKWISITEALAFFHCCLNPILYAFLGAKFKTSAQHALTSVSRGSSLKILSKGKRGGHSSVSTESESSSFHSS”, the protein production entry is recorded as “not failed”.

For “MEGLEAYDYHLPPEQIAQEGVEPRDMARLMVVYREGPFRVAHKRVRDLPEFLRPGDVLVFNESKVIPARLLARKPTGGKVEILLVRERSPGLWEALLGPARKAPPGTRLLLLSPKDLAPVPGLQAEVVAVEEDGVRLLRFQGDLVAHLEEVGEVPLPPYIKAKIPMERYQTVYARRPGSVAAPTAGLHFTPELLERLREMGVELRFLTLHVGPGTFRPVKGDPEKHEMHAEPYAIPEEVAEAVNRAKAEGRRVVAVGTTVVRALESAYREGVGVVAGEGETRLFIRPPYTFKVVDALFTNFHLPRSTLLMLVAAFLGRERTLEAYRLAVAEGYRFYSLGDAMLIL”, the protein production entry was “not failed”.

In the case of “MEGLIPFLYKAIVMYKREGSFSSVLLSDHHSPSNAGYYMRLPGDSSSRFRTSDLRRFGTDRFGMLETTPSSSPSRVSTRNITKRT”, the protein production entry is on record as “failed”.

On to “MEGLQRSTISFRRQGSSGIVFDDRLIAELNKSGNNEQKDESQRDEQPKPMSESSEQVKPIDEKDKLRPIKTGGGAPGGIERSRSNGGGAQRHHRTTGRVSPAVDPPSPRISSCGCCSAFGKNPPGKKVNPRKRPPKRRSR”, for which the protein production result is “failed”.

Take “MEGSQQTITSKQLVRMLKDASRGSKGKGSGEMKFCFLIGAGASISSGIPSGAKLAWDWLQQIKEDCDGEDFEDWKIEIKMPDQHIEERVGEFYPEIYEKRFGHAPETGYDYIRGLMEGREPSLGYLILANIMVREKHNVVITTNFDNLLEDAIRTYTKEKPFIAGHEALADYVPKRSDRPIILKLHRDLFLQPFSDQLNTDILQAAWESILGKFLSDYHLIVLGYGGNDGSLMNYLLKLKNRKPIYWCVRNTDKATSKSLWNTLSPKAKRLLKNDGYLVPIDDFDRFMYDCYAALGYKFLEGIEKIEKPKSIHEILKPNYARIESIQTQLRQLSQTEEELSKESFQSIKSFLPDSWMWILKANQEKDIDKKDKIYREGIAKYPQDANLLGDYADFLCDICHD”: the protein production entry is “not failed”.

“MEIEFMTNVAVRRPNLNDVDELYLFFRIVITNTYKNEGLSQSLDDIENEINSKKQYLKSDFDSNGEGRYFLLAIDTSNDKIIGTIEIGPASTLINSCTGGVLKNLYEIGTVFILPEYQRKGIGSLLLHTMFLTLLSRGITEYCLDSGYKNAQSIWTKKFGKPSYVLKDYWGESSDHMIWKKSLHDTPIIFEL”: the protein production result is “failed”.

With “MEIFFTILIMTLVVSLSGVVTRVMPFQIPLPLMQIAIGALLAWPTFGLHVEFDPELFLVLFIPPLLFADGWKTPTREFLEHGREIFGLALALVVVTVVGIGFLIYWVVPGIPLIPAFALAAVLSPTDAVALSGIVGEGRIPKKIMGILQGEALMNDASGLVSLKFAVAVAMGTMIFTVGGATVEFMKVAIGGILAGFVVSWLYGRSLRFLSRWGGDEPATQIVLLFLLPFASYLIAEHIGVSGILAAVAAGMTITRSGVMRRAPLAMRLRANSTWAMLEFVFNGMVFLLLGLQLPGILETSLMAAEIDPNVEIWMLFTNIILIYAALMLVRFGWLWTMKKFSNRFLKKKPMEFGSWTTREILIASFAGVRGAITLAGVLSIPLLLPDGNVFPARYELVFLAAGVILFSLFVGVVMLPILLQHIEVADHSQQLKEERIARAATAEVAIVAIQKMEERLAADTEENIDNQLLTEVSSRVIGNLRRRADGRNDVESSVQEENLERRFRLAALRSERAELYHLRATREISNETLQKLLHDLDLLEALLIEENQ”, the protein production result is “failed”.

Consider “MEIHYAAKQDKCLVRPVIRDHTGSQSYRSTTSILTDHLRRNHHSHGAIASRDYLSYSWNSQLRRFSSEGDGNNASEDSRFPLNKDKMGKEKSTVGVEHFDSHAQLGVQDQIEWLNNEKRASESRKESPFLNKRERLKNEFLRRIQPWETIQLSWESFPYYVHEHTKDTLVECVSSHIKQKSMTSKYGARLDSSSGRILLQSVPGTELYRERLVRALARDTQVPLLVLDSSVLAPYDFADDYNEESESDDDIAESDQCTSQSEAEEETDGDNDDTSSSETKIEGTDDEERYLEISKEVLKKLGADIEDIEKRMSEQLYGSSEVSEAAAVDQDDKAKRPLKKGSQFVTCALCYLHQMMSV”, for which the protein production result is “failed”.

“MEIMEFEEAFKEVYEMVKPKYKLFTAGPVACFPEVLEIMKVQMFSHRSKEYRKVHMDTVERLREFLEVEKGEVLLVPSSGTGIMEASIRNGVSKGGKVLVTIIGAFGKRYKEVVESNGRKAVVLEYEPGKAVKPEDLDDALRKNPDVEAVTITYNETSTGVLNPLPELAKVAKEHDKLVFVDAVSAMGGADIKFDKWGLDVVFSSSQKAFGVPPGLAIGAFSERFLEIAEKMPERGWYFDIPLYVKYLKEKESTPSTPPMPQVFGINVALRIIEKMGGKEKWLEMYEKRAKMVREGVREIGLDILAEPGHESPTITAVLTPPGIKGDEVYEAMRKRGFELAKGYGSVKEKTFRIGHMGYMKFEDIQEMLDNLREVINELKKQKGIN”: the protein production result is “not failed”.

In the case of “MEISNRLKSISEVMDRCEIAADIGTDHAYLPIYLIKNNLCKRFIASDVNAGPLKKAINNINKYKLEDKIECRLGSGLNVLKLEEVDVVVIAGMGGNLIRDIIEERLDIFKKLKYAVLQPVQNPEILREYLIKRGFNIIEEQLCIDESKYYEIIKVCYDSKIEDKDDVYYEIGDKLIDMKHPLLKEYINYKIRKYDKIYKNISEESLNALSRKNELSIKIRKLKELLSCL”, the protein production entry was “failed”.

With “MEITTLQIVLIFIVACVSGMGSILDEFQFHRPLVACTLIGAVLGDLKTGIIIGGTLEMIALGWMNIGAAVAPDAALASIISTILVIAGGQGIGAGIALAIPLAAAGQVLTIIVRTITVAFQHAADSAAERGNLTAISWIHVSALLLQAMRIAIPAVIVAVSVGTDTVHALLNSIPDVVTNGLNIAGGMIVVVGYAMVINMMRAGYLMPFFYLGFVTAAFTEFNLVALGVIGIVMAVLYIQLSPKYNKVQGQSVTSGNNGLDNELD”, the protein production entry is “failed”.

With “MEKAPLLLETVEQAVRILQESPFVAIWNYKVLSVQAGAVALALPAQPQFYRPGGIIQGGCLMTLADTAFWLAAMTELGIDAPIVTLEMKTHFLRAAQADVYCRAEVMKSGRRVTYGTATITDAAGQTLSHHTLTYLAALEHHHHHH”, the protein production result is recorded as “failed”.

Take “MEKENDENITKKLSLKKVLFNSLFVSLSILVLGFVINYKYAVGYIFILVIHELGHYIIAKFLKVSVAFGGFTPVGAYIIHENPKNCKENALIAMGGPLFGGLLGLIYYIVYYVTGNNTFLVLTFTSIILNLGNLIPVSPLDGGQIAEAISPTLCYIGFPVLIYLFILLNSLKSKILLLFIIVAGIYQTYYFTMKYKTDPYYKLDKPSKIKFIFIYSILVLSLTISAIYLYNSFDFKDIFHSIARFK”: the protein production result is reported as “failed”.
